What was measured:
Assay in all cases: activation reporter or marker
[1] = molecular target: T1, HPV 16 E7(11-19), single-substitution variant Y1I (synthetic scanning library) peptide on HLA-A*02:01 (human)
T1 peptide: IMLDLQPET

[2] = molecular target: T2, HPV 16 E7(11-19), single-substitution variant Y1N (synthetic scanning library) peptide on HLA-A*02:01 (human)
T2 peptide: NMLDLQPET

[3] = molecular target: T3, HPV 16 E7(11-19), single-substitution variant L3V (synthetic scanning library) peptide on HLA-A*02:01 (human)
T3 peptide: YMVDLQPET

[4] = molecular target: T4, HPV 16 E7(11-19), single-substitution variant L3A (synthetic scanning library) peptide on HLA-A*02:01 (human)
T4 peptide: YMADLQPET

[5] = molecular target: T5, HPV 16 E7(11-19), single-substitution variant M2C (synthetic scanning library) peptide on HLA-A*02:01 (human)
T5 peptide: YCLDLQPET

[6] = molecular target: T6, HPV 16 E7(11-19), single-substitution variant T9A (synthetic scanning library) peptide on HLA-A*02:01 (human)
T6 peptide: YMLDLQPEA

[7] = molecular target: T7, HPV 16 E7(11-19), single-substitution variant L5Y (synthetic scanning library) peptide on HLA-A*02:01 (human)
T7 peptide: YMLDYQPET

[8] = molecular target: T8, HPV 16 E7(11-19), single-substitution variant E8C (synthetic scanning library) peptide on HLA-A*02:01 (human)
T8 peptide: YMLDLQPCT

[9] = molecular target: T9, HPV 16 E7(11-19), single-substitution variant Y1H (synthetic scanning library) peptide on HLA-A*02:01 (human)
T9 peptide: HMLDLQPET

[10] = molecular target: T10, HPV 16 E7(11-19), single-substitution variant L3C (synthetic scanning library) peptide on HLA-A*02:01 (human)
T10 peptide: YMCDLQPET

[11] = molecular target: T11, HPV 16 E7(11-19), single-substitution variant L3M (synthetic scanning library) peptide on HLA-A*02:01 (human)
T11 peptide: YMMDLQPET

[12] = molecular target: T12, HPV 16 E7(11-19), single-substitution variant Y1C (synthetic scanning library) peptide on HLA-A*02:01 (human)
T12 peptide: CMLDLQPET

[13] = molecular target: T13, HPV 16 E7(11-19), single-substitution variant Y1L (synthetic scanning library) peptide on HLA-A*02:01 (human)
T13 peptide: LMLDLQPET

[14] = molecular target: T14, HPV 16 E7(11-19), single-substitution variant Y1V (synthetic scanning library) peptide on HLA-A*02:01 (human)
T14 peptide: VMLDLQPET

[15] = molecular target: T15, HPV 16 E7(11-19), single-substitution variant L5C (synthetic scanning library) peptide on HLA-A*02:01 (human)
T15 peptide: YMLDCQPET

[16] = molecular target: T16, HPV 16 E7(11-19), single-substitution variant Y1A (synthetic scanning library) peptide on HLA-A*02:01 (human)
T16 peptide: AMLDLQPET

[17] = molecular target: T17, HPV 16 E7(11-19), single-substitution variant L5M (synthetic scanning library) peptide on HLA-A*02:01 (human)
T17 peptide: YMLDMQPET

[18] = molecular target: T18, HPV 16 E7(11-19), single-substitution variant T9C (synthetic scanning library) peptide on HLA-A*02:01 (human)
T18 peptide: YMLDLQPEC

[19] = molecular target: T19, HPV 16 E7(11-19), single-substitution variant T9D (synthetic scanning library) peptide on HLA-A*02:01 (human)
T19 peptide: YMLDLQPED

[20] = molecular target: T20, HPV 16 E7(11-19), single-substitution variant L5F (synthetic scanning library) peptide on HLA-A*02:01 (human)
T20 peptide: YMLDFQPET

[21] = molecular target: T21, HPV 16 E7(11-19), single-substitution variant Y1S (synthetic scanning library) peptide on HLA-A*02:01 (human)
T21 peptide: SMLDLQPET

[22] = molecular target: T22, HPV 16 E7(11-19), single-substitution variant E8V (synthetic scanning library) peptide on HLA-A*02:01 (human)
T22 peptide: YMLDLQPVT

[23] = molecular target: T23, HPV 16 E7(11-19), single-substitution variant E8R (synthetic scanning library) peptide on HLA-A*02:01 (human)
T23 peptide: YMLDLQPRT

[24] = molecular target: T24, HPV 16 E7(11-19), single-substitution variant T9S (synthetic scanning library) peptide on HLA-A*02:01 (human)
T24 peptide: YMLDLQPES

[25] = molecular target: T25, HPV 16 E7(11-19), single-substitution variant E8Q (synthetic scanning library) peptide on HLA-A*02:01 (human)
T25 peptide: YMLDLQPQT

Measured: binding result

B1: TCR 57 (TCR, V domains shown)
Valpha: TQLLEQSPQFLSIQEGENLTVYCNSSSVFSSLQWYRQEPGEGPVLLVTVVTGGEVKKLKRLTFQFGDARKDSSLHITAAQPGDTGLYLCAGARNFNKFYFGSGTKLNVKP
Vbeta: GAVVSQHPSWVICKSGTSVKIECRSLDFQATTMFWYRQFPKQSLMLMATSNEGSKATYEQGVEKDKFLINHASLTLSTLTVTSAHPEDSSFYICSARSWRGGLEQFFGPGTRLTVL
recognises: [1] | [2] | [3] | [4] | [5] | [6] | [7] | [8] | [9] | [10] | [11] | [12] | [13] | [14] | [15] | [16] | [17] | [18] | [19] | [20] | [21] | [22] | [23] | [24] | [25]

— patent US20190321401A1 (JUNO THERAPEUTICS, published 2019)
